Measured values taken from patent publication US6086895.

Biological target: fibronectin (125I labelled)
Assay: inhibition assay in tubes; control lysate undiluted; 125I fibronectin bound to S. aureus Cowan I cells (competitor)

With “lysate of E. coli TG1 with pUC18-vector without insert (negative control) (pool or library)” the % binding in relation to control without lysate was 83.3%.
